Assays:
Test in all cases: Kinase Profiling Assay
Assay type in all cases: biochemical
LKB1(h) = molecular target: T1, LKB1(h) (Homo sapiens, UniProt Q15831); conditions: 100 μM
T1 sequence (Q15831 1-433): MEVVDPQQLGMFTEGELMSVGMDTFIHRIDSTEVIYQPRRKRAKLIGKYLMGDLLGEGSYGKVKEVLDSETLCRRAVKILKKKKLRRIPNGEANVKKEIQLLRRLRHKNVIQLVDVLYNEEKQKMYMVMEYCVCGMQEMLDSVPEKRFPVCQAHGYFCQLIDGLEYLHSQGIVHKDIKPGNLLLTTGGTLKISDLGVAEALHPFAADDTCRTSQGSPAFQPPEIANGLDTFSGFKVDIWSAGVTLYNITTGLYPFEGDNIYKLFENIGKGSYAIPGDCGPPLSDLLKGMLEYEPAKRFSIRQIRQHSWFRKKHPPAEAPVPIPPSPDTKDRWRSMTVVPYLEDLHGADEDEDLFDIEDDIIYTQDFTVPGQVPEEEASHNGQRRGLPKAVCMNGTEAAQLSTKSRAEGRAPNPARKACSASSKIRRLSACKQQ
T1 sequence (Q7RTN6 1-431 partner): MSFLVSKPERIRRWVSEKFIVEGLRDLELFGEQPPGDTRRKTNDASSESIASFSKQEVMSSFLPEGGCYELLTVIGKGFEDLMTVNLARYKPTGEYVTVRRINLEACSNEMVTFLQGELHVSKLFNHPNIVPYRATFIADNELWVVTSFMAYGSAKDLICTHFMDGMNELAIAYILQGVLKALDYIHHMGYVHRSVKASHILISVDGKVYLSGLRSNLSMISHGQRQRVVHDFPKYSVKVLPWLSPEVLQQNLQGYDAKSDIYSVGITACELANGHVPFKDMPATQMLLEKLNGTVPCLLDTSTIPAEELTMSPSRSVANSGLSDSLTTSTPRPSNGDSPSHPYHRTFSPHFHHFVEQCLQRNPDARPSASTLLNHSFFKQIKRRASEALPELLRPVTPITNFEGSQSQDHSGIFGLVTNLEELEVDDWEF
T1 sequence (Q9Y376 1-341 partner): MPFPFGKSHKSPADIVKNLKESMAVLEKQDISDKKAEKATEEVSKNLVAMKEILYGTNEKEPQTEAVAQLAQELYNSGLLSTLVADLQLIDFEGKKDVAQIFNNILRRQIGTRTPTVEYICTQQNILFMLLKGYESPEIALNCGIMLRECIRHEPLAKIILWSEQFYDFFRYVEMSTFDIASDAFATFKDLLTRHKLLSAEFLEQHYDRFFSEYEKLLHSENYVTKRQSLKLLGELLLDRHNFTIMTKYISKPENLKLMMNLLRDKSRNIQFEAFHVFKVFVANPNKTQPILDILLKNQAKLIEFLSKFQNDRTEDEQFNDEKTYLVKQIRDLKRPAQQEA

IR(h) = IR(h) (Homo sapiens, UniProt P06213); conditions: 100 μM
IR(h), activated = IR(h), activated (Homo sapiens, UniProt P06213)
MRCKα(h) = MRCKα(h) (Homo sapiens, UniProt Q5VT25)
MuSK(h) = molecular target: T2, MuSK(h) (Homo sapiens, UniProt O15146)
T2 sequence (O15146 24-869): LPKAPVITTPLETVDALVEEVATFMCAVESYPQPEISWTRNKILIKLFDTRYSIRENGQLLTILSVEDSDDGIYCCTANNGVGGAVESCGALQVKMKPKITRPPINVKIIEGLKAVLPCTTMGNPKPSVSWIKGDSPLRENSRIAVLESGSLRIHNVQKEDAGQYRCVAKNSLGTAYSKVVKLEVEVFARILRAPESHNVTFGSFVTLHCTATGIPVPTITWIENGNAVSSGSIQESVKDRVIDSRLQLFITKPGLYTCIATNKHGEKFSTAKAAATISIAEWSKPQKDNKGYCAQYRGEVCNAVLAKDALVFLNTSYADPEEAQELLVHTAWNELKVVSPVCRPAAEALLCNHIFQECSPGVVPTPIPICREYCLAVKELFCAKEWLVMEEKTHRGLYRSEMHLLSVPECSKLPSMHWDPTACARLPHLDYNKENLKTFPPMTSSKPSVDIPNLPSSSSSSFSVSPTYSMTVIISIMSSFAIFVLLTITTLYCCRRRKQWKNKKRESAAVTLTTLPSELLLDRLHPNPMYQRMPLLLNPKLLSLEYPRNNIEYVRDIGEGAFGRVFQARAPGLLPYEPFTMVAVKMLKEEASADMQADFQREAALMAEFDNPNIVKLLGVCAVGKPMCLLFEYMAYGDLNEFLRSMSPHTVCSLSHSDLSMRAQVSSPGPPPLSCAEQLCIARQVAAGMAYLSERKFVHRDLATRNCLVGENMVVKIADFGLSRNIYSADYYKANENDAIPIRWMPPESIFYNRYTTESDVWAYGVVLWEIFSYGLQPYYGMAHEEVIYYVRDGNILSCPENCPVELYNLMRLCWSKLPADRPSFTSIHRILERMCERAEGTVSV

SAPK3(h) = molecular target: T3, SAPK3(h) (Homo sapiens, UniProt P53778); conditions: 100 μM
T3 sequence (P53778 1-367): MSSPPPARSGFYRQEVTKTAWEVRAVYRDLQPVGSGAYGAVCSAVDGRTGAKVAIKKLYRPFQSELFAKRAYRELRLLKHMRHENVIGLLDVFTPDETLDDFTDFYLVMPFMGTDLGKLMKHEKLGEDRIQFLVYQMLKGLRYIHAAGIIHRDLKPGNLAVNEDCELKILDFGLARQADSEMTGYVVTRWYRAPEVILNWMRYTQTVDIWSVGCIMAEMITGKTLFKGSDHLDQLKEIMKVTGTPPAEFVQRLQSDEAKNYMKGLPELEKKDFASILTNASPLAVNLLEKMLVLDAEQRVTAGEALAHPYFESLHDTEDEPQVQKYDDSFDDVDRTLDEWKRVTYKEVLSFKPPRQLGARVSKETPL

CK1δ(h) = CK1δ(h) (Homo sapiens, UniProt P48730); conditions: 100 μM
Rsk1(h) = Rsk1(h) (Homo sapiens, UniProt Q15418)
Src(T341M)(h) = Src(T341M)(h) (Homo sapiens, UniProt P12931, T341M); conditions: 100 μM
FGFR2(h) = FGFR2(h) (Homo sapiens, UniProt P21802); conditions: 100 μM
EGFR(h) = EGFR(h) (Homo sapiens, UniProt P00533); conditions: 100 μM

Sequence of Rsk1(h) (Q15418 whole entry): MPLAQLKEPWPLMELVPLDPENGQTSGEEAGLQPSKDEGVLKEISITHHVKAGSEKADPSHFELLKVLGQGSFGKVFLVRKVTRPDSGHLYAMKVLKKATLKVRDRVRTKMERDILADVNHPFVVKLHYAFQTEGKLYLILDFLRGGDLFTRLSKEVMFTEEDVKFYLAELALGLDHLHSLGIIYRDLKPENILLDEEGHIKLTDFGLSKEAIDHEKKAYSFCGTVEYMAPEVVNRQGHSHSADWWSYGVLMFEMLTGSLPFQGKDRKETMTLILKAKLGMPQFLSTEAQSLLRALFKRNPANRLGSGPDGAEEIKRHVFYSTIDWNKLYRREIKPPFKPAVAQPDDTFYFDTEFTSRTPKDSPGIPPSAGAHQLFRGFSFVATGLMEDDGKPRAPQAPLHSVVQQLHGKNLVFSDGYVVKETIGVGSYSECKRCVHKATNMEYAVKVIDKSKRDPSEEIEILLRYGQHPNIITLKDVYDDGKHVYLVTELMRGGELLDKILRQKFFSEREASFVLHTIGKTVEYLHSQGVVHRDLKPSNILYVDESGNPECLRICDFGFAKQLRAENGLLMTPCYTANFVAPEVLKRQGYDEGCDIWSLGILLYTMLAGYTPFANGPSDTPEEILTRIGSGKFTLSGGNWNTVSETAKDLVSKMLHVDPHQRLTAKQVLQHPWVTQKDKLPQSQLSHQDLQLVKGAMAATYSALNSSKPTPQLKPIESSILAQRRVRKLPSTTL
Sequence of MRCKα(h) (Q5VT25 whole entry): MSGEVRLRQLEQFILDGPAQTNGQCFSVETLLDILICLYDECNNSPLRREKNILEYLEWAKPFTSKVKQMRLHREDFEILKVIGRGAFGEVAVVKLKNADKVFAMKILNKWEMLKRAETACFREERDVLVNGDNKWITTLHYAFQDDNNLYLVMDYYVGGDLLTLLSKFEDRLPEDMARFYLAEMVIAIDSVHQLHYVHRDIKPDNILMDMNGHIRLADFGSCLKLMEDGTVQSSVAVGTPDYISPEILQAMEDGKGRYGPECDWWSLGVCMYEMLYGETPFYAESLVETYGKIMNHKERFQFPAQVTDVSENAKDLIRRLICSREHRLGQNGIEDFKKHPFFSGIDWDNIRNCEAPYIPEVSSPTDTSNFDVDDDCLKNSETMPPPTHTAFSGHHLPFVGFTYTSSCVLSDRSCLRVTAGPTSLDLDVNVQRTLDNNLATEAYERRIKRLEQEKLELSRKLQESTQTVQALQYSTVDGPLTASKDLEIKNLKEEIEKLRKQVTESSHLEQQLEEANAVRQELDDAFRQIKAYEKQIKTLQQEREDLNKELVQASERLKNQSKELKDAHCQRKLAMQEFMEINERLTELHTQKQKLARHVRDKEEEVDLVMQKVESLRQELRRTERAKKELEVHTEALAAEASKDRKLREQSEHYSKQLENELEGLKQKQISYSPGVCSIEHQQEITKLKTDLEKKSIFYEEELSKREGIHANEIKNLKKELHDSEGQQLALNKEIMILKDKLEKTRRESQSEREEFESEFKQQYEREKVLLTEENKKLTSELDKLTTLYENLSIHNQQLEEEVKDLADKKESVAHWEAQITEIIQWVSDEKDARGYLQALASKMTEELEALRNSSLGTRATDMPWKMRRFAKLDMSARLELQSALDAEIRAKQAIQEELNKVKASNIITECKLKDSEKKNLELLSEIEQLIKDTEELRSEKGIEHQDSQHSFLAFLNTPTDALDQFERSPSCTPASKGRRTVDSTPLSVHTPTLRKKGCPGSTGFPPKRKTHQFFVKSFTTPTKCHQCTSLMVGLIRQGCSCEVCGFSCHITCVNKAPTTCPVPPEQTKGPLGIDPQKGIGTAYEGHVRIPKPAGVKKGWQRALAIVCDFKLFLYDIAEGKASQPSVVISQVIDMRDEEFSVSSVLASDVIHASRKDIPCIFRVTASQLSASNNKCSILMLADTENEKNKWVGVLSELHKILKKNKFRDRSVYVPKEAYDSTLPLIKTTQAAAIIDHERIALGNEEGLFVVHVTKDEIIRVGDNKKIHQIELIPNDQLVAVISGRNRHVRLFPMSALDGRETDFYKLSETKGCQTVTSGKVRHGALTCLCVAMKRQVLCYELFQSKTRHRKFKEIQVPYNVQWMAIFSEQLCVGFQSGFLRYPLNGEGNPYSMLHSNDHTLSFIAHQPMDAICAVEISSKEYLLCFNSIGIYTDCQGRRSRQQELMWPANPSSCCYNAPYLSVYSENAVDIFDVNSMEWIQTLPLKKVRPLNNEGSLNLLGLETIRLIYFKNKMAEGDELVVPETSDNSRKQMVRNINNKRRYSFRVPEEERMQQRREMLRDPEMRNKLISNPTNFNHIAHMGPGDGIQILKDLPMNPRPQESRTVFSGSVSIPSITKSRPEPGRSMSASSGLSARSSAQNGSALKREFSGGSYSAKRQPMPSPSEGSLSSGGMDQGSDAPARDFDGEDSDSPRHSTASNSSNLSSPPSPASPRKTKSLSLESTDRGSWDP
Sequence of CK1δ(h) (P48730 whole entry): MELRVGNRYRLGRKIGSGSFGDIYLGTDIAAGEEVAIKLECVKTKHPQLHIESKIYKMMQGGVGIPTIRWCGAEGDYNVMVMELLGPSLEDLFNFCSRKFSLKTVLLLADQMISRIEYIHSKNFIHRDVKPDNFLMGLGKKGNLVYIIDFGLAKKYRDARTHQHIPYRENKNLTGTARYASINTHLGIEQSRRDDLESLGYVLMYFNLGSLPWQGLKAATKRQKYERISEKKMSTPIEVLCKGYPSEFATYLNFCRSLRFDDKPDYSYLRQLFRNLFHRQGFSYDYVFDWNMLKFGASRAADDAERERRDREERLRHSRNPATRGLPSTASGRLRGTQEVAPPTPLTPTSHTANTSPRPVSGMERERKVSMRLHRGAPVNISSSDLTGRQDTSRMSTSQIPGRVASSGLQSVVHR

Row | Substance | % activity (LKB1(h)) [%] | % activity (IR(h)) [%] | % activity (IR(h), activated; 100 μM) [%] | % activity (MRCKα(h); 100 μM) [%] | % activity (MuSK(h); 100 μM) [%] | % activity (SAPK3(h)) [%] | % activity (CK1δ(h)) [%] | % activity (Rsk1(h); 100 μM) [%] | % activity (Src(T341M)(h)) [%] | % activity (FGFR2(h)) [%] | % activity (EGFR(h)) [%] | activity at 100 µM (IR(h), activated) [%] | activity at 100 µM (MRCKα(h)) [%] | activity at 100 µM (MuSK(h)) [%] | activity at 100 µM (Rsk1(h)) [%]
1 | HRRIKAWLKKIKALARQLGVAA (Mammalian) [MMI-0500] | 51 | 95 | 90 | 5 | 27 | 24 | 78 | 34 | 59 | 12 | -1 |  |  |  | 
2 | YARAAARQARAKALNRQLGVA (Mammalian) [MMI-0200] | 99 | 90 |  |  |  | 97 | 92 |  | 56 | 73 | 83 |  |  |  | 
3 | H-YARAAARQARAKALARQLGVAA-OH [MMI-0100] |  |  |  |  |  |  |  |  |  |  |  | 127 | 98 | 85 | 86

Source: patent US10087225B2, “Formulation of MK2 inhibitor peptides” (MOERAE MATRIX, INC., priority 2015, dated 2018)
